# Measured values as given in paper PMC4424349, “The Plasmodium Class XIV Myosin, MyoB, Has a Distinct Subcellular Location in Invasive and Motile Stages of the Malaria Parasite and an Unusual Light Chain*” (The Journal of Biological Chemistry, 2015).
# Target: T1, PfMLC-B C-terminal domain (MLC-B CTD), residues 497-652 (Plasmodium falciparum, UniProt Q8III1 497-652)
# T1 construct: Myosin light chain B (MLC-B), Plasmodium falciparum 3D7, PlasmoDB PF3D7_1118700; C-terminal 156 amino acids, residues 497-652 (3' 471 bp of mlc-b cDNA, primers 27 and 28); Cloned into BamHI/XhoI of pGEX6P1; a few vector residues may remain after PreScission cleavage; also called PfMLC-B CTD; calmodulin-like C-terminal domain; source: E. coli BL21 Gold, purified (glutathione-Sepharose, PreScission …)
# T1 sequence: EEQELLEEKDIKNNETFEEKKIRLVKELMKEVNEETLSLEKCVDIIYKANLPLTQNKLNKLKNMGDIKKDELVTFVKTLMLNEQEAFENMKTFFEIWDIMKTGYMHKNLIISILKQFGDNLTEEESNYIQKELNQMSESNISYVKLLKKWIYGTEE
# Experiment: thermal unfolding monitored by CD at 222 nm; MLC-B CTD alone or with 1.5- or 3-fold molar excess of peptide; heating 1 °C/min, 20-90 °C
# Settings: both partners purified
protein,measurement,value
"Ac-NIKNLQLAQAYFRKYKYIKEH-NH2 (Myosin B (MyoB), Plasmodium falciparum, residues 780-800; also called Asn780 to His800 peptide; peptide from the extreme C terminus of MyoB; source: synthetic peptide) [Myosin B peptide Asn780 to His800]",Tm of MLC-B CTD with a 1.5-fold molar excess of the peptide (59 °C without peptide),67 °C
same,Tm of MLC-B CTD with a 3-fold molar excess of the peptide (59 °C without peptide),70 °C
